Source: the supplement of paper PMC7877785
± gives the uncertainty stated by the source.

Assay: self-splicing fitness, log relative to wild type (ln ratio); higher = more splicing; Tetrahymena group I intron in knt gene, E. coli kanamycin selection, DiMSum; sequences stand for … in CUCUCU…GGAGGGAAAAGUUAUCAGGCAUGCACCUGGUAGCUAGUCUUUAAACCAAUAGAUUGCAUCGGUUUAAAAGGCAAGACCGUCAAAUUGCGGGAAAGGGGUCAACAGCCGUUCAGUACCAAGUCUCAGGGGAAACUUUGAGAUGGCCUUGCAAAGGGUAUGGUAAUAAGCUGACGGACAUGGUCCUAACCACGCAGCCAAGUCCUAAGUCAACAGAUCUUCUGUUGAUAUGGAUGCAGUUCACAGACUAAAUGUCGGUCGGGGAAGAUGUAUUCUUCUCAUAAGAUAUAGUCGGACCUCUCCUUAAUGGGAGCUAGCGGAUGAAGUGAUGCAACACUGGAGCCGCUGGGAACUAAUUUGUAUGCGAAAGUAUAUUGAUUAGUUUUGGAGUACUCGUGGUCG
Outline: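 Pooled colonies went to amplicon sequencing on an Illumina HiSeq 2500 after six replicate transformations. The plates were LB agar with 100 μg/mL carbenicillin, 50 μM IPTG and 0.2% rhamnose, with or without 25 μg/mL kanamycin, incubated overnight at 37°C or 30°C. The E. coli BL21(DE3) library had all eight P1ex-region intron nucleotides randomised, the intron placed in the knt kanamycin-resistance gene on pET-22b(+). DiMSum fitness is the error-weighted combination of replicate fold changes, kanamycin against none, normalised to wild type.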

## CGUUAGCAAUAUUACGAGAU
30 °C
  self-splicing fitness (ln): -2.01 ± 0.23
37 °C
  self-splicing fitness (ln): -2.33 ± 0.35

## GGCCAGCAAUAUUACGCGCA
30 °C
  self-splicing fitness (ln): -0.425 ± 0.1
37 °C
  self-splicing fitness (ln): 0.666 ± 0.13

## GUGGAGCAAUAUUACGGAAU
30 °C
  self-splicing fitness (ln): -3.23 ± 0.16
37 °C
  self-splicing fitness (ln): -1.33 ± 0.17

## AGUAAGCAAUAUUACGCAGA
30 °C
  self-splicing fitness (ln): -3.22 ± 0.36
37 °C
  self-splicing fitness (ln): -2.67 ± 0.29

## AUUUAGCAAUAUUACGAGUA
30 °C
  self-splicing fitness (ln): -2.95 ± 0.27
37 °C
  self-splicing fitness (ln): -0.93 ± 0.18

## UGUCAGCAAUAUUACGAGGG
30 °C
  self-splicing fitness (ln): -3.72 ± 0.2
37 °C
  self-splicing fitness (ln): -1.37 ± 0.14

## GACAAGCAAUAUUACGUUUG
30 °C
  self-splicing fitness (ln): -2.88 ± 0.094
37 °C
  self-splicing fitness (ln): -2.64 ± 0.13

## AUCUAGCAAUAUUACGUUCG
30 °C
  self-splicing fitness (ln): -1.28 ± 0.091
37 °C
  self-splicing fitness (ln): -0.393 ± 0.11

## GUGUAGCAAUAUUACGCCAC
37 °C
  self-splicing fitness (ln): -1.07 ± 0.48

## UUCAAGCAAUAUUACGCAAU
30 °C
  self-splicing fitness (ln): -2.21 ± 0.19
37 °C
  self-splicing fitness (ln): -1.99 ± 0.21

## UGUCAGCAAUAUUACGCAAC
30 °C
  self-splicing fitness (ln): -2.59 ± 0.33
37 °C
  self-splicing fitness (ln): -1.26 ± 0.28

## GUGCAGCAAUAUUACGGGUA
30 °C
  self-splicing fitness (ln): -2.35 ± 0.1
37 °C
  self-splicing fitness (ln): -2.12 ± 0.12

## AUGGAGCAAUAUUACGCGUG
30 °C
  self-splicing fitness (ln): -3.24 ± 0.16
37 °C
  self-splicing fitness (ln): -1.15 ± 0.14

## CGAGAGCAAUAUUACGGCGC
30 °C
  self-splicing fitness (ln): -2.76 ± 0.21
37 °C
  self-splicing fitness (ln): -1.62 ± 0.21

## AUAGAGCAAUAUUACGUCAA
30 °C
  self-splicing fitness (ln): -2.19 ± 0.23
37 °C
  self-splicing fitness (ln): -1.77 ± 0.24

## CCUAAGCAAUAUUACGCCGU
30 °C
  self-splicing fitness (ln): -2.92 ± 0.19
37 °C
  self-splicing fitness (ln): -3.22 ± 0.29

## AUGUAGCAAUAUUACGUCAG
30 °C
  self-splicing fitness (ln): -3.5 ± 0.18
37 °C
  self-splicing fitness (ln): -2.25 ± 0.16

## GGGGAGCAAUAUUACGGGUG
30 °C
  self-splicing fitness (ln): -3.57 ± 0.23
37 °C
  self-splicing fitness (ln): -2.9 ± 0.43

## CAUAAGCAAUAUUACGUGUA
30 °C
  self-splicing fitness (ln): -2.6 ± 0.14
37 °C
  self-splicing fitness (ln): -1.77 ± 0.18

## AUAAAGCAAUAUUACGAAAC
30 °C
  self-splicing fitness (ln): -2.47 ± 0.19
37 °C
  self-splicing fitness (ln): -1.18 ± 0.32

## ACCAAGCAAUAUUACGAUUU
30 °C
  self-splicing fitness (ln): -1.51 ± 0.041
37 °C
  self-splicing fitness (ln): -1.26 ± 0.054

## GCAUAGCAAUAUUACGUAAG
30 °C
  self-splicing fitness (ln): -1.63 ± 0.083
37 °C
  self-splicing fitness (ln): -0.386 ± 0.12

## UAAUAGCAAUAUUACGCUGU
30 °C
  self-splicing fitness (ln): -3.69 ± 0.28
37 °C
  self-splicing fitness (ln): -0.659 ± 0.17

## UACAAGCAAUAUUACGAUCG
30 °C
  self-splicing fitness (ln): 0.00344 ± 0.082
37 °C
  self-splicing fitness (ln): 0.983 ± 0.11

## UCCGAGCAAUAUUACGAACU
37 °C
  self-splicing fitness (ln): -2.3 ± 0.32

## CGCCAGCAAUAUUACGCAAG
30 °C
  self-splicing fitness (ln): -1.03 ± 0.077
37 °C
  self-splicing fitness (ln): -0.526 ± 0.091

## GGUUAGCAAUAUUACGAUUA
30 °C
  self-splicing fitness (ln): -0.191 ± 0.13
37 °C
  self-splicing fitness (ln): 0.0365 ± 0.12

## AUCUAGCAAUAUUACGUUGC
30 °C
  self-splicing fitness (ln): -3.28 ± 0.28
37 °C
  self-splicing fitness (ln): -3.03 ± 0.37

## ACAGAGCAAUAUUACGUUUU
30 °C
  self-splicing fitness (ln): -3.47 ± 0.24
37 °C
  self-splicing fitness (ln): -3.26 ± 0.32

## CUGCAGCAAUAUUACGGAGC
30 °C
  self-splicing fitness (ln): -3.93 ± 0.47
37 °C
  self-splicing fitness (ln): -2.61 ± 0.31

## GCUUAGCAAUAUUACGAUUU
30 °C
  self-splicing fitness (ln): -0.0141 ± 0.091
37 °C
  self-splicing fitness (ln): -0.234 ± 0.12

## AGGGAGCAAUAUUACGACAA
30 °C
  self-splicing fitness (ln): -3.29 ± 0.29
37 °C
  self-splicing fitness (ln): -3.44 ± 0.42

## UAAGAGCAAUAUUACGGGCA
30 °C
  self-splicing fitness (ln): -2.73 ± 0.26
37 °C
  self-splicing fitness (ln): -1.99 ± 0.24

## GCCUAGCAAUAUUACGUACG
30 °C
  self-splicing fitness (ln): -2.67 ± 0.23
37 °C
  self-splicing fitness (ln): -1.52 ± 0.24

## AAAUAGCAAUAUUACGAAAU
30 °C
  self-splicing fitness (ln): -3.02 ± 0.15
37 °C
  self-splicing fitness (ln): -1.2 ± 0.13

## ACUUAGCAAUAUUACGAUUA
30 °C
  self-splicing fitness (ln): -1.05 ± 0.13
37 °C
  self-splicing fitness (ln): -1.55 ± 0.13

## GGGAAGCAAUAUUACGUCAA
30 °C
  self-splicing fitness (ln): -1.34 ± 0.32

## GGCGAGCAAUAUUACGCGGA
30 °C
  self-splicing fitness (ln): -2.3 ± 0.17
37 °C
  self-splicing fitness (ln): -0.458 ± 0.13

## UGUCAGCAAUAUUACGUUCA
30 °C
  self-splicing fitness (ln): -0.292 ± 0.1
37 °C
  self-splicing fitness (ln): -0.052 ± 0.14

## AUGUAGCAAUAUUACGUCAC
37 °C
  self-splicing fitness (ln): -2.81 ± 0.47

## CACCAGCAAUAUUACGCUUC
30 °C
  self-splicing fitness (ln): -4.12 ± 0.34
37 °C
  self-splicing fitness (ln): -1.45 ± 0.13

## GUUAAGCAAUAUUACGUAAU
30 °C
  self-splicing fitness (ln): -2.09 ± 0.079
37 °C
  self-splicing fitness (ln): -1.49 ± 0.089

## UCCCAGCAAUAUUACGAACU
30 °C
  self-splicing fitness (ln): -3.52 ± 0.33
37 °C
  self-splicing fitness (ln): -2.92 ± 0.43

## GCCAAGCAAUAUUACGACCA
30 °C
  self-splicing fitness (ln): -1.48 ± 0.17
37 °C
  self-splicing fitness (ln): -1.36 ± 0.19

## CAGCAGCAAUAUUACGCAGC
30 °C
  self-splicing fitness (ln): -4.33 ± 0.32
37 °C
  self-splicing fitness (ln): -2.3 ± 0.28

## GGCCAGCAAUAUUACGCAGC
30 °C
  self-splicing fitness (ln): -3.08 ± 0.37
37 °C
  self-splicing fitness (ln): -1.88 ± 0.33

## UUGAAGCAAUAUUACGAUUC
30 °C
  self-splicing fitness (ln): -2.33 ± 0.18
37 °C
  self-splicing fitness (ln): -2.3 ± 0.28

## AGCUAGCAAUAUUACGAGCU
30 °C
  self-splicing fitness (ln): -2.65 ± 0.19
37 °C
  self-splicing fitness (ln): -1.92 ± 0.21

## UUCUAGCAAUAUUACGUGCA
30 °C
  self-splicing fitness (ln): -1.23 ± 0.13
37 °C
  self-splicing fitness (ln): -1.59 ± 0.16
